Biological target: Transferrin receptor (TfR, TFRC) (UniProt P02786 SEQ:89-760)
Assay: SPR; value only in figure, stated to be in similar range to TR14; Biacore T100, biotinylated aptamer on SA chip, 30 mM Tris-HCl pH 7.5, 150 mM NaCl, 5 mM MgCl2
Settings: SELEX was against the extracellular domain; chain copies: 2; label: biotin (SPR), Cy3 (cell imaging)
Method: The kinetics of TR14 S1-3 were analysed by surface plasmon resonance (SPR) technology. The Biacore T100 (GE Healthcare, Uppsala, Sweden) was used to monitor label-free the aptamer-transferrin receptor interactions in real time. Biotinylated aptamers were coupled to a streptavidin-coated Biocore chip (SensorChip SA, BR-1003-98, General Electric Company) by an injection in binding buffer at concentration of 25 μg/mL (30 mM Tris-HCl, pH 7.5, 150 mM NaCl, 5 mM MgCl2) at 10 uL/min. The RNA was refolded by heating to 65° C. followed by cooling to 37° C. before immobilization. To measure binding kinetics, five concentrations of purified transferrin receptor protein were injected at a flow rate of 10 uL per minute. After binding, the surface was regenerated by injecting 50 mM NaOH at flow rate of 15 μL per minutes for 20 seconds. Data from the control surface were subtracted. BlAevaluation software (GE Healthcare) was used for analysis. The binding data were fit to a 1:1 binding with a mass transfer model to calculate kinetic parameters.

Transferrin receptor (TfR, TFRC), sequence (P02786 89-760): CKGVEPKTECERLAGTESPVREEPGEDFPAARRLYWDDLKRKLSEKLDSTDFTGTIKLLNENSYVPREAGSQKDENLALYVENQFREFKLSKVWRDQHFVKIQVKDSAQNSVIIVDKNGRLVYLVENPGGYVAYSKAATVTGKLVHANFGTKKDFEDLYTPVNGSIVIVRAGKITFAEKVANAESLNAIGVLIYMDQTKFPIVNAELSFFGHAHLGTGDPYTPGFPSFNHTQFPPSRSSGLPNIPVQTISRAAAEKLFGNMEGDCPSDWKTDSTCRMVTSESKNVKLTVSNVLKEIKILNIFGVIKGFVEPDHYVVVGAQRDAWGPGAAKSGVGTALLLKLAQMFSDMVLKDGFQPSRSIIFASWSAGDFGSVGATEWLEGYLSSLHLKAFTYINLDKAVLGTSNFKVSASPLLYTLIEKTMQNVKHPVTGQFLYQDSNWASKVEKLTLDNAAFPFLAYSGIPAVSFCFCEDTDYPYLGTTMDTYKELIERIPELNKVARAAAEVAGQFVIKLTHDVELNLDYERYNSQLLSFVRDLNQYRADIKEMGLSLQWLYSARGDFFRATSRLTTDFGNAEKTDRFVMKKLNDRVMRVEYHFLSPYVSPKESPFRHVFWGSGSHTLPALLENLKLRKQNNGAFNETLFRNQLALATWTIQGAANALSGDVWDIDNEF

UUUAUUCACAUUUUUGAAUUGA (ssRNA, 2'-F (library of 2'F RNAs; positions not stated)) [TR14 S1-3 (22-mer)]: binds.

— patent US20200172905, “RNA APTAMERS AGAINST TRANSFERRIN RECEPTOR (TFR)” (CITY OF HOPE, published 2020)
